Assay results taken from patent publication US20070203087A1.

Target: aggrecan (core protein carrying chondroitin sulfate chains) made by rat chondrosarcoma LTC cells (rat) (UniProt P07897)

Row | Substance | chondroitin sulfate synthesis activity (35S sulfate label in chondroitinase ABC-digested GAG fractions of transfected LTC cells and culture medium) [fold]
1 | human chondroitin sulfate N-acetylgalactosaminyltransferase-1 (enzyme) | 2.2
2 | human chondroitin sulfate glucuronyltransferase (enzyme) | 1.6
